Experimental data as given in patent US11872268B2, “Safe and effective beta-lactamase dosing for microbiome protection” (Theriva Biologics, Inc., priority 2015, dated 2024).
Like-named read-outs stand apart in the source and are kept apart here.

Tests used:
[1] = design: species or system human; details: in vivo
Experimental: (§1) This example evaluated the effects of two strengths of oral SYN-004 (75 mg or 150 mg) administered twice in six hours on the plasma pharmacokinetics (PK) and chyme concentrations of a single dose of ceftriaxone administered as an intravenous (IV) infusion (1 g infused over 30 minutes). Further, this example evaluated if SYN-004 was present in chyme, if there was absorption of SYN-004 into plasma, and the safety and tolerability of SYN-004 (75 mg or 150 mg) in combination with IV ceftriaxone.
This was a Phase 1, randomized, multi-center, open-label study. Ten otherwise healthy subjects with functioning ileostomies who were between the ages of 18 and 80 years, inclusive, were enrolled. As an overview, in the first treatment period (Period 1) all subjects received an IV infusion of 1 gram (g) ceftriaxone. In the second treatment period (Period 2) all subjects received an IV infusion of 1 g ceftriaxone and 2 doses of either 75 mg or 150 mg of SYN-004, according to the randomization schedule, and administered 30 minutes before and 5.5 hours after the ceftriaxone infusion. Subjects were screened for study participation within 45 days prior to Check-in (Day −1), and the entire duration of the study may be up to 64 days (from Screening to the end-of-study visit).
The active dosage form of SYN-004 being administered was a hard gelatin, size 0, opaque white capsule containing delayed-release mini-pellets. Subjects randomized to Treatment AB received two oral doses of SYN-004 75 mg (1×75 mg capsule) twice in one day on Day 1 of Period 2. Subjects randomized to Treatment AC received two oral doses of SYN-004 150 mg (2×75 mg capsules) twice in one day on Day 1 of Period 2.
Specifically, in Period 1, all subjects received an IV infusion of 1 g ceftriaxone administered over 30 minutes on Day 1. In Period 2, subjects again received an IV infusion of 1 g ceftriaxone administered over 30 minutes on Day 1, as well as two oral doses of SYN-004 (75 mg or 150 mg) 30 minutes before and 5.5 hours after the IV infusion of 1 g ceftriaxone. All subjects received an infusion of ceftriaxone 1 g over 30 minutes in Period 1 and a second identical, time matched infusion in Period 2. The exact time of day of dosing for consecutive subjects may be staggered (±1 hour) to accommodate sample collection logistics; however, the time of day of ceftriaxone administration on Day 1 in Periods 1 and 2 were consistent for each subject.
With respect to meals and fluid intake, on Day 1 in each period, subjects received a small non-fatty meal approximately 1 hour (7:00 AM) prior to administration of ceftriaxone and again 5 hours after the start of infusion (1:00 PM). Subjects received full meals at approximately 2 and 7.5 hours after the start of the infusion (10:00 AM and 3:30 PM), respectively. In order to generate sufficient chyme output, subjects drank 8 ounces of water or apple juice at the start of the infusion and at 0.5, 1, and 1.5 hours after the start of the infusion (i.e., every half hour between 8:00 AM and 9:30 AM); thereafter, subjects were encouraged to drink 8 ounces of water or apple juice hourly between 2 and 7 hours after the start of the infusion (10:00 AM to 3:00 PM).
On Day 1, Period 1, serial blood and chyme samples were collected from approximately 30 minutes pre-dose through approximately 7 hours for serial blood and 8.5 for chyme after the start of infusion for determination of ceftriaxone concentration. […]

[2] = Phase 1b/2a ileostomy study (Example 5): ceftriaxone plasma concentration; type: in vivo, human; details: 1 g IV with and without oral SYN-004 75 or 150 mg
Experimental: as §1
This was a Phase 1, randomized, multi-center, open-label study. Ten otherwise healthy subjects with functioning ileostomies who were between the ages of 18 and 80 years, inclusive, were enrolled. […]
Pharmacokinetics: Serial blood (5 mL each) and chyme samples (2 mL minimum) were collected on Day 1 of Period 1 and Period 2. The following PK parameters of SYN-004 and ceftriaxone were determined from the plasma and chyme concentration-time data for all evaluable subjects using non-compartmental methods: maximum observed plasma concentration (Cmax), area under the concentration-time curve from time 0 to the last quantifiable concentration (AUCt), and time to reach Cmax (Tmax) as applicable. In addition, area under the concentration-time curve from time 0 to infinity (AUC∞) was calculated where determinable.

[3] = molecular target: SYN-004 (Bacillus licheniformis, UniProt P00808, D288N); assay: SYN-004 activity in human intestinal chyme in the presence of beta-lactamase inhibitor (ceftriaxone by LC/MS-MS); type: biochemical; details: 20 mg/ml Sulbactam, 8 ug/ml SYN-004
Experimental: Ceftriaxone (at 3 ug/ml or 1500 ug/ml) was mixed with human intestinal chyme alone, or with chyme plus SYN-004 (8 ug/ml) or with chyme plus the beta-lactamase inhibitor sulbactam, (20 mg/ml) or chyme plus both and then the samples were flash frozen. The flash frozen samples were thawed on ice and sulbactam was added to some samples, the protein was precipitated with acetonitrile and the samples were analyzed for ceftriaxone concentration by LC/MS-MS. The table below provides results from triplicate samples.

[4] = human, in vivo, po
Experimental: A Phase 1, double blind, placebo controlled study was carried out to assess the safety, tolerability, and pharmacokinetics (PK) of SYN-004 in healthy adult subjects. Specifically, a single dose of oral SYN-004 capsule (75 mg, 150 mg, 300 mg, 600 mg, or 750 mg) was administered to subjects. Blood samples were collected for PK evaluation and determination of anti-SYN-004 antibodies. A total of 40 healthy adult subjects were enrolled in the study with 6 active and 2 placebo subjects per cohort.

[5] = human, in vivo
Experimental: (§2) A Phase 1, double blind, randomized, placebo controlled study was carried out to assess the safety, tolerability, and PK of SYN-004 in healthy adult subjects. Specifically, multiple doses of oral SYN-004 capsules (75 mg, 150 mg, or 300 mg) were administered to the subjects at 4 doses per day for 7 days. Blood samples were collected for PK evaluation and determination of anti-SYN-004 antibodies. A total of 24 healthy adult subjects were enrolled in the study with 6 active and 2 placebo subjects per cohort.

[6] = design: species or system human; details: in vivo, po
Experimental: as §2

Sequence of SYN-004 (P00808 44-307 D288N): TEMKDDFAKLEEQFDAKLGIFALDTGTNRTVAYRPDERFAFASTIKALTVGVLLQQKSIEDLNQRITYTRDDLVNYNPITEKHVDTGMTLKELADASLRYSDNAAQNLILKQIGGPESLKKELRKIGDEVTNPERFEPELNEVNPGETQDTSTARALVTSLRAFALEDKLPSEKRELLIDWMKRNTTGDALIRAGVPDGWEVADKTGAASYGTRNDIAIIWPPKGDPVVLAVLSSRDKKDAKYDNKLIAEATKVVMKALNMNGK

CO/N=C(\C(=O)N[C@@H]1C(=O)N2C(C(=O)O)=C(CSc3nc(=O)c(=O)[nH]n3C)CS[C@H]12)c1csc(N)n1 [Ceftriaxone]
time ceftriaxone appeared in the chyme ([1]; human): 1.5 to 2.5 h
time of second peak of ceftriaxone in chyme ([1]; human): 6 to 8 h
peak ceftriaxone in chyme ([1]; human, iv): 115 to 1400 µg/mL
plasma concentration of ceftriaxone, Period 1 versus Period 2 [2]: no significant difference

CC1(C)[C@H](C(=O)O)N2C(=O)C[C@H]2S1(=O)=O [Sulbactam, sulbactam]
inhibition of SYN-004 activity in intestinal chyme [3]: did not substantially inhibit SYN-004 activity

SYN-004: beta-lactamase with the amino acid sequence of SEQ ID NO: 1; given orally as delayed-release capsule of enteric-coated pellets
systemic bioavailability [4]: not systemically bioavailable
Cmax (plasma) ([4]; 750 mg): 1.4 ng/mL
Tmax (plasma) ([4]; 750 mg): 1 to 4 h
systemic bioavailability [5]: not systemically bioavailable
anti-SYN-004 antibodies [6]: No anti-SYN-004 antibodies were detected
degradation of ceftriaxone in chyme [1]: effectively degraded ceftriaxone
time measurable SYN-004 began to be detectable in the chyme [1]: 5.5 h
